Laboratory results as given in patent publication US20100310561A1 (Boehringer Ingelheim, published 2010).
Where no end group is shown, it is not given here.

T1: canine NPRA (canine, UniProt A0A8I3MHU3 32-1060)
T1 sequence: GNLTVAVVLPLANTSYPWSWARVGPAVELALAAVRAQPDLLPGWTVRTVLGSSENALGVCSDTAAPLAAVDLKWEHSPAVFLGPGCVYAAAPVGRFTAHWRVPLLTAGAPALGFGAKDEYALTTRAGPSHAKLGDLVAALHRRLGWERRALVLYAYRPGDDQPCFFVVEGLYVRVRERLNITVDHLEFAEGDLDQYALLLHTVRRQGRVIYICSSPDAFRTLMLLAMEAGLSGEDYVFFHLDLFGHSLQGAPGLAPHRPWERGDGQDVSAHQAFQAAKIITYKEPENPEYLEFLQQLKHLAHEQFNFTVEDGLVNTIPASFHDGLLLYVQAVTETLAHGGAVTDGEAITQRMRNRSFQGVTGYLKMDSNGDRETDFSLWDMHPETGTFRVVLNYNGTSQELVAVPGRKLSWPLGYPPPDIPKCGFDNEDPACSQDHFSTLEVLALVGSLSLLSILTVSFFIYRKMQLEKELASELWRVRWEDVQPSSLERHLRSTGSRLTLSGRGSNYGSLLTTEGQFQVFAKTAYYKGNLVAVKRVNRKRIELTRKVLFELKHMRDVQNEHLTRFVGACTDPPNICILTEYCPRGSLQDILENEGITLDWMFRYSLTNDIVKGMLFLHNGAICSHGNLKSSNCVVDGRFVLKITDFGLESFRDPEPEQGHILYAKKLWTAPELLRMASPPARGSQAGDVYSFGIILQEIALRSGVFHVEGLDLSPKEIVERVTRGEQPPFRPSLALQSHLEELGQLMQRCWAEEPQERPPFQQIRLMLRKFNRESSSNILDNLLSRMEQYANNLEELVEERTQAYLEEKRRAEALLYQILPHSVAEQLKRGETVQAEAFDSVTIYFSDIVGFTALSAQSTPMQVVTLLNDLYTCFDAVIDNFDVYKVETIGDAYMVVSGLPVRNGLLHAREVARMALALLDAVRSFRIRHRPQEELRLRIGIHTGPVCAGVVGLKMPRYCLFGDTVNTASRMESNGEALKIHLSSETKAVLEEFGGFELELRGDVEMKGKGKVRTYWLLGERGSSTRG

T2: human natriuretic peptide receptor A (NPRA) (human, UniProt P16066 33-1061)
T2 sequence (looked up): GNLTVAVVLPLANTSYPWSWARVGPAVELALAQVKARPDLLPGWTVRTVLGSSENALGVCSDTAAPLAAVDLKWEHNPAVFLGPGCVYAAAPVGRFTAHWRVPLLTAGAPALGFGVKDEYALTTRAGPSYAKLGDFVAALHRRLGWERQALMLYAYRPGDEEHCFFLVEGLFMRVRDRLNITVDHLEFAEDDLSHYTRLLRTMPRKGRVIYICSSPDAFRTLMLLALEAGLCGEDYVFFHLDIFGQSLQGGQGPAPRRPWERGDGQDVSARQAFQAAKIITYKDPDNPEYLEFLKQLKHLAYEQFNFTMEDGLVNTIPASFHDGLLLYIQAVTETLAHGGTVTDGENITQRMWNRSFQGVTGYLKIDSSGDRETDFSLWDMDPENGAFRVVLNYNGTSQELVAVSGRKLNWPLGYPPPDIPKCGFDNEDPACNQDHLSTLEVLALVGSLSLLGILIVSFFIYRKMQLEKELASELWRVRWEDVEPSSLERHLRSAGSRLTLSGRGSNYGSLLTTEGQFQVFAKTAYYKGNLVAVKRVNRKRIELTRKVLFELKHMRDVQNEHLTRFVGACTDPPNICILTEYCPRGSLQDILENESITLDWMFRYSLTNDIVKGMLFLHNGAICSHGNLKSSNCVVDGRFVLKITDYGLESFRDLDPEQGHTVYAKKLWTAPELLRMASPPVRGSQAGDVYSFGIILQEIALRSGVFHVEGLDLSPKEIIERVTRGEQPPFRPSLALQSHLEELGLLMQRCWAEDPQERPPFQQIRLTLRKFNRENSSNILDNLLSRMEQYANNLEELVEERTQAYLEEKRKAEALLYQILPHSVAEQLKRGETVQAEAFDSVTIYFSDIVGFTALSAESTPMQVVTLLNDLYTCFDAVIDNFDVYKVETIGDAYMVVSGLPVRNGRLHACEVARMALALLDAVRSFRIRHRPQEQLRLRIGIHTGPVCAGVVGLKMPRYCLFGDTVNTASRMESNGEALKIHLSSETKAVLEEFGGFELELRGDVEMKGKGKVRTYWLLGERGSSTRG

T3: rat NPRA (rat, UniProt P18910 29-1057)
T3 sequence (looked up): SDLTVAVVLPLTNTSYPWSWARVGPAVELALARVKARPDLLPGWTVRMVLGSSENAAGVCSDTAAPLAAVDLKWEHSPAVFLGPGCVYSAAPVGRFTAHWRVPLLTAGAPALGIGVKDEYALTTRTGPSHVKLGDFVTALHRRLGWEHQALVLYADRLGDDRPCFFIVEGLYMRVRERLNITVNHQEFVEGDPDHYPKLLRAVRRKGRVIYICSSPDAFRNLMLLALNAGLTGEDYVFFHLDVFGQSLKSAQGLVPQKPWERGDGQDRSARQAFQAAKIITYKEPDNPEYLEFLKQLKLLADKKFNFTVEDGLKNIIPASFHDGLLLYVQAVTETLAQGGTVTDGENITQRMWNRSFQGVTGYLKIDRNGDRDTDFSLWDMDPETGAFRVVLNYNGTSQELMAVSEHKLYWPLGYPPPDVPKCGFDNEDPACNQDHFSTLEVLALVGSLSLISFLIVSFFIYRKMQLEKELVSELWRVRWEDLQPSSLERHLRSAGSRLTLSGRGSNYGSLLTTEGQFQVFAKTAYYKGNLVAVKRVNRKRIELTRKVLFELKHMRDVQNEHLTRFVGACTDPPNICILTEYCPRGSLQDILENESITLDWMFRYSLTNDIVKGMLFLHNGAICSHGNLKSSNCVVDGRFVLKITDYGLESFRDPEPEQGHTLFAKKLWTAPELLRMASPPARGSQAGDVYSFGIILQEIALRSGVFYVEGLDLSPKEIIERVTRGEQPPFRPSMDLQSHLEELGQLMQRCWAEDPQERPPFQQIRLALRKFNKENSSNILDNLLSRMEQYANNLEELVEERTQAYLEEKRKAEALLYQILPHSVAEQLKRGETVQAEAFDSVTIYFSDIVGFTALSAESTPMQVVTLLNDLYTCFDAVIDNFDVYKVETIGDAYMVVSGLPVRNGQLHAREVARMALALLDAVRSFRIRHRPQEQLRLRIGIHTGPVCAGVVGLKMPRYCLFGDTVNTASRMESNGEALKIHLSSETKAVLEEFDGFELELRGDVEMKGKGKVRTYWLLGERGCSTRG

B1: Construct 4, ANPXY-L4-Fc2AB (recombinant) (Fc fusion)
chain: SLRRSSCFGGRMDRIGAQSGLGCNSFRYGGSGGSGGSGGCPPCPAPPVAGPSVFLFPPKPKDTLMISRTPEVTCVVVDVSHEDPEVQFNWYVDGVEVHNAKTKPREEQFNSTFRVVSVLTVVHQDWLNGKEYKCKVSNKGLPAPIEKTISKTKGQPREPQVYTLPPSREEMTKNQVSLTCLVKGFYPSDIAVEWESNGQPENNYKTTPPMLDSDGSFFLYSKLTVDKSRWQQGNVFSCSVMHEALHNHYTQKSLSLSPGK
notes: also called ANP28-11aa-hFc2
B2: Construct 5, ANPXY-L6-Fc2AB (recombinant) (Fc fusion)
chain: SLRRSSCFGGRMDRIGAQSGLGCNSFRYGGSGGSGGSGGSGGSGGSGGCPPCPAPPVAGPSVFLFPPKPKDTLMISRTPEVTCVVVDVSHEDPEVQFNWYVDGVEVHNAKTKPREEQFNSTFRVVSVLTVVHQDWLNGKEYKCKVSNKGLPAPIEKTISKTKGQPREPQVYTLPPSREEMTKNQVSLTCLVKGFYPSDIAVEWESNGQPENNYKTTPPMLDSDGSFFLYSKLTVDKSRWQQGNVFSCSVMHEALHNHYTQKSLSLSPGK
notes: also called ANP28-20aa-hFc2

Experiments:
[1] = target: T1, canine NPRA; assay: cell-based or functional assay
[2] = target: T1, canine NPRA; assay: cell-based or functional assay; remark: listed apart in the source
[3] = target: monkey NPRA (monkey); assay: cell-based or functional assay
[4] = target: T2, human natriuretic peptide receptor A …; assay: cell-based or functional assay
[5] = target: T3, rat NPRA; assay: cell-based or functional assay
[6] = target: T2, human natriuretic peptide receptor A …; assay: competition with 125I-labeled ANP on human NPRA transfected HEK293 cells
Protocol: (§1) Plates were washed using vacuum filtration and allowed to dry. Scintillant was added and the plates were counted on a TopCount Scintillation counter. Curves were fit using XLfit4.2 and IC₅₀ values (Table 8) were determined using the Dose Response One Site Model 205, [4 parameter fit: y=A+((B-A)/(1+((C/x)̂D)))].

[7] = target: T2, human natriuretic peptide receptor A …; assay: competition with 125I-labeled ANP on human NPRA transfected HEK293 cells; Ki=IC50/[1+([L]/Kd)]
Protocol: Plates were washed with ice cold buffer by vacuum filtration and allowed to dry. Scintillant was added and the plates were counted on a TopCount Scintillation counter.
as §1

[8] = target: T2, human natriuretic peptide receptor A …; assay: competition with 125I-labeled ANP on human NPRA transfected HEK293 cells; relative to Construct 1
Protocol: as §1

Binder	Mean EC50 nM, cGMP-caNPRA 293 [1] [nM]	cGMP EC50 (nM) Dog NPRA [2] [nM]	cGMP EC50 (nM) Monkey NPRA [3] [nM]	cGMP EC50 (nM) Human NPRA [4] [nM]	cGMP EC50 (nM) Rat NPRA [5] [nM]	IC50 [6] [nM]	Ki [7] [nM]	Relative Affinity [8]
SLRRSSCFGGRMDRIGAQSGLGCNSFRY (ends and bridges not checked; also: also used 125I-labelled as radioligand) [human ANP28 peptide (hANP28)]	1.34	1.3	0.5					
B1		46	18	27	57	29.3	12.3	4
B2		6	5	6	12	4.3	2	1
